What was measured:
[1] = molecular target: T1, neutrophil elastase (ELANE) (human, UniProt P08246 30-247, limits assumed); assay: enzyme kinetics: ELANE (10 nM) chromogenic substrate activity with ECP 0-180 nM, curve fitting
T1 construct: Purified ELANE; In the co-immunoprecipitation it is the native protein in human PMN media; also called human ELANE
T1 sequence (looked up): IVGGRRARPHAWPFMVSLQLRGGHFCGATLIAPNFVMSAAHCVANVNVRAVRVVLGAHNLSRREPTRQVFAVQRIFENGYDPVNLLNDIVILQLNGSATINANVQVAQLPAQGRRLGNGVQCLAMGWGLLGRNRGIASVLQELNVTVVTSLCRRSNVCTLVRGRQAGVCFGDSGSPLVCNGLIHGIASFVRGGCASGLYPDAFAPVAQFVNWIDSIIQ
Experimental: Catalytic activity was measured using the chromogenic substrate N-Methoxysuccinyl-Ala-Ala-Pro-Val p-nitroanilide (Sigma, 100 μg/mL) according to manufacturer's protocol. Absorbance was measured at 405 nm using an accuSkan GO UV/Vis microplate spectrophotometer (ThermoFisher Scientific). […] Residual PMSF was eliminated with a PD-10 desalting column (GE Healthcare Life).

[2] = molecular target: T2, recombinant human N-terminal CD95 (aa 1-173)
T2 chain: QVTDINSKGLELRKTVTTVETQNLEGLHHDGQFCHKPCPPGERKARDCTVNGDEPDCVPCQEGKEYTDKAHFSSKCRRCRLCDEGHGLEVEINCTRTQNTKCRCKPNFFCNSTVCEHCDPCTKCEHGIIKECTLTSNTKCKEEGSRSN

[3] = molecular target: T3, eosinophil cationic protein (ECP), P12724
T3 chain: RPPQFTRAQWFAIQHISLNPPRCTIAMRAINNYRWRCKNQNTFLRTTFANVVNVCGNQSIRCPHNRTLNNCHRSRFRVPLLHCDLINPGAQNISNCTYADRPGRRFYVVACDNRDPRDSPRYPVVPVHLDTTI

[4] = molecular target: T4, recombinant human C-terminal CD95 (aa 212-335)
T4 chain: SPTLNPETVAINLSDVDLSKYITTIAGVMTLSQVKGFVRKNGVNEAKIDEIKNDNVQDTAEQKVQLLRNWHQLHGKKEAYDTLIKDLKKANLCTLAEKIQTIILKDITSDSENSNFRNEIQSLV

[5] = molecular target: recombinant peptide corresponding to aa 214-231 of human CD95
[6] = molecular target: recombinant peptide corresponding to aa 317-335 of human CD95

Row | Binder | Kd [1] [µM] | cleavage of recombinant protein (SDS-PAGE, Coomassie blue) [2] | catalytic turnover (kcat) of ELANE [3] | cleavage of recombinant protein (SDS-PAGE, Coomassie blue) [4] | cleavage of peptide monitored by mass spectrometry [5] | cleavage of peptide monitored by mass spectrometry [6]
1 | eosinophil cationic protein (ECP) (other, human, UniProt P12724 28-160, looked up, Identified by proteomics in media conditioned by human PMNs) RPPQFTRAQWFAIQHISLNPPRCTIAMRAINNYRWRCKNQNTFLRTTFANVVNVCGNQSIRCPHNRTLNNCHRSRFRVPLLHCDLINPGAQNISNCTYADRPGRRFYVVACDNRDPRDSPRYPVVPVHLDTTI | 0.017 | – | – | – | – | –
2 | neutrophil elastase (ELANE) (protein) IVGGRRARPHAWPFMVSLQLRGGHFCGATLIAPNFVMSAAHCVANVNVRAVRVVLGAHNLSRREPTRQVFAVQRIFENGYDPVNLLNDIVILQLNGSATINANVQVAQLPAQGRRLGNGVQCLAMGWGLLGRNRGIASVLQELNVTVVTSLCRRSNVCTLVRGRQAGVCFGDSGSPLVCNGLIHGIASFVRGGCASGLYPDAFAPVAQFVNWIDSIIQ | – | ELANE preferentially cleaved the C-terminal domain | increases its catalytic turnover (kcat) by ~12-fold | ELANE preferentially cleaved the C-terminal domain | studies with synthetic peptides validated these findings | studies with synthetic peptides validated these findings

Source: patent US20260207707A1 (UNIVERSITY OF CHICAGO, published 2026)
